The target of experiment [1] is human recombinant adrenomedullin receptor (CRLR+RAMP3) (human).
The target is the same in experiment [2]. The source holds these as a separate data set.

For “human ADM 22-52 (from UniProt P35318) (peptide)”, in experiment [1], the IC50 (read off the curve), inhibition of cAMP stimulation by 5.63 nM hADM was found to be 0.2 µM. The IC50 (read off the curve), inhibition of cAMP stimulation by 0.67 nM mADM in experiment [2] is 2 µM.

Source of the values: patent US12662530.
